*1 amine or outer side, *2 acyl side, *3 side chain or, on linkers, in order; H or OH if unused. Bridges are numbered along the chain shown (N, C = ends). Primed or numbered codes have the meaning given here. Where no end group is shown, it is not given here. Side-chain parts run from the residue outwards. [ ]: non-standard residue; d: D form. The star is where a group is joined. code d = side-chain group of K(d): lysine given as (2R)-2-(4-((5-amino-5-carboxypentyl)amino)-4-oxobutanamido)-3-carboxy-N,N,N-trimethylpropan-1-aminium, C[N+](C)(C)C[C@@H](CC(=O)O)NC(=O)CCC(=O)*; TMAPF = 5-(4-(2-amino-2-carboxyethyl)phenoxy)-N,N,N-trimethylpentan-1-aminium, C[N+](C)(C)CCCCCOc1ccc(C[C@H](N[*:1])C(=O)[*:2])cc1; code d″ = lysine side-chain amide of a carnitine-succinyl group ((2R)-3-carboxy-N,N,N-trimethylpropan-1-aminium amide; Biotin = O=C1N[C@H]2[C@H](CS[C@H]2CCCCC(=O)*)N1; PEG2′ = PEG2 spacer unit (not further defined); Trp(7-Me) = Cc1cccc2c(C[C@H](N)C(=O)O)c[nH]c12; γGlu = O=C(O)[C@H](CCC(=O)[*:2])N[*:1]; 2Nal = N[C@@H](Cc1ccc2ccccc2c1)C(=O)O; AEF = NCCOc1ccc(C[C@H](N)C(=O)O)cc1; 3Pal = N[C@@H](Cc1cccnc1)C(=O)O; NMeK = CN[C@@H](CCCCN)C(=O)O; NMecPEG3a = not defined here; Pen = CC(C)(S)[C@H](N)C(=O)O; PEG2″ = PEG2 spacer unit; PEG4′ = not defined here; dAEF′ = not defined here; Thp = NC1(C(=O)O)CCOCC1; Sar = CNCC(=O)O
T1: interleukin-23 receptor (IL-23R) (UniProt Q5VWK5 24-629, limits assumed)
T1 sequence (looked up): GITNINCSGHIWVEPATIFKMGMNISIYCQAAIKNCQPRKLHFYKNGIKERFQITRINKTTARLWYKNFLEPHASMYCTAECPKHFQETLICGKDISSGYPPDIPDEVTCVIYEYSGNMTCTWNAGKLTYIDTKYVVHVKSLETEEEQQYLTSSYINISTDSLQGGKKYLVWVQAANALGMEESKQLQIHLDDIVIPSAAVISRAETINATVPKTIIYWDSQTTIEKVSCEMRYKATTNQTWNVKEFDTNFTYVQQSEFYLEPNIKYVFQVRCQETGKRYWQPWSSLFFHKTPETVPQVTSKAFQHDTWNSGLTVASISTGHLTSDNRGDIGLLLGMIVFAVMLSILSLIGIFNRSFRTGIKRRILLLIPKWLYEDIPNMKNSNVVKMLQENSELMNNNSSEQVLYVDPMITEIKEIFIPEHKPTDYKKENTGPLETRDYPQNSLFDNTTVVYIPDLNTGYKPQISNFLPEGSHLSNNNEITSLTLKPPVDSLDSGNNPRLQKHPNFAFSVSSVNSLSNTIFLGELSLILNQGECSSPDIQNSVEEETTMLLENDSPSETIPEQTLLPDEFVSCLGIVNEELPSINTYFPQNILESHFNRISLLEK

B1: SEQ ID NO: 37 (peptide)
peptide: Ac-[dR][Pen]XT[Trp(7-Me)]K(Ac)[Pen][AEF][2Nal][Thp]K([PEG2′-PEG2′-γGlu-C18OH])N[3Pal][Sar]-NH2
modifications: disulfide 2-7 (inferred); not fully specified (residue 3); printed as MeCO-r-Pen(3)-K(d)-T-7MeW-K(Ac)-Pen(3)-AEF-2Nal-THP-K(PEG2PEG2gEC18OH)-N-3Pya-Sar-CONH2
B2: SEQ ID NO: 22 (peptide)
peptide: Ac-[dR][Pen]NT[Trp(7-Me)]K(Ac)[Pen][dAEF′][2Nal][Thp]K([PEG2′-PEG2′-γGlu-C18OH])N[3Pal][Sar]-NH2
modifications: disulfide 2-7 (inferred); reading uncertain; also: printed as MeCO-r-Pen(3)-N-T-7MeW-K(Ac)-Pen(3)-AEF(d)-2Nal-THP-K(PEG2PEG2gEC18OH)-N-3Pya-Sar-CONH2
B3: SEQ ID NO: 27 (peptide)
peptide: XNTXXXXXXENXXK
modifications: MeCO-Pen(3)-N-T-7MeW-K(Ac)-Pen(3)-AEF-2Nal-THP-E-N-3Pya-Sar-K(PEG2PEG2gEC18OH)-CONH2
B4: SEQ ID NO: 43 (peptide)
peptide: [dR][Pen]NT[Trp(7-Me)]K(Ac)[Pen][AEF][2Nal][Thp]EN[3Pal][NMeK](code d)-NH2
modifications: disulfide 2-7 (inferred); not fully specified (N-terminus); printed as HOC18gEPEG2PEG2CO-r-Pen(3)-N-T-7MeW-K(Ac)-Pen(3)-AEF-2Nal-THP-E-N-3Pya-NMeK(d)-CONH2
B5: SEQ ID NO: 30 (peptide)
peptide: Ac-[dR][Pen]XT[Trp(7-Me)]K(Ac)[Pen][AEF][2Nal][Thp]EN[3Pal][NMeK]([PEG2′-PEG2′-γGlu-C18OH])-NH2
modifications: disulfide 2-7 (inferred); not fully specified (residue 3); printed as MeCO-r-Pen(3)-K(d)-T-7MeW-K(Ac)-Pen(3)-AEF-2Nal-THP-E-N-3Pya-NMeK(PEG2PEG2gEC18OH)-CONH2
B6: SEQ ID NO: 33 (peptide)
peptide: Ac-[dK]([PEG2′-PEG2′-γGlu-C18OH])[Pen]NT[Trp(7-Me)]K(Ac)[Pen][AEF][2Nal][Thp]XN[3Pal][Sar]-NH2
modifications: disulfide 2-7 (inferred); not fully specified (residue 11); printed as MeCO-k(PEG2PEG2gEC18OH)-Pen(3)-N-T-7MeW-K(Ac)-Pen(3)-AEF-2Nal-THP-K(d)-N-3Pya-Sar-CONH2
B7: SEQ ID NO: 46 (peptide)
peptide: [dR][Pen]NT[Trp(7-Me)]K(code d)[Pen][AEF][2Nal][Thp]EN[3Pal][Sar]-NH2
modifications: disulfide 2-7 (inferred); not fully specified (N-terminus); printed as HOC18gEPEG2PEG2CO-r-Pen(3)-N-T-7MeW-K(d)-Pen(3)-AEF-2Nal-THP-E-N-3Pya-Sar-CONH2
B8: SEQ ID NO: 21 (peptide)
peptide: Ac-[dR][Pen]NT[Trp(7-Me)]K(Ac)[Pen][AEF][2Nal][Thp]K([PEG2′-PEG2′-γGlu-C18OH])N[3Pal]X-NH2
modifications: disulfide 2-7 (inferred); not fully specified (residue 14); printed as MeCO-r-Pen(3)-N-T-7MeW-K(Ac)-Pen(3)-AEF-2Nal-THP-K(PEG2PEG2gEC18OH)-N-3Pya-NMeK(d)-CONH2
B9: SEQ ID NO: 26 (peptide)
peptide: Ac-K[Pen]NT[Trp(7-Me)]K(Ac)[Pen][AEF][2Nal][Thp]EN[3Pal][Sar]-NH2
modifications: disulfide 2-7 (inferred); not fully specified (residue 1); printed as MeCO-k(PEG12gEC20OH)-Pen(3)-N-T-7MeW-K(Ac)-Pen(3)-AEF-2Nal-THP-E-N-3Pya-Sar-CONH2
B10: SEQ ID NO: 47 (peptide)
peptide: [dR][Pen]K(code d)T[Trp(7-Me)]K(Ac)[Pen][AEF][2Nal][Thp]EN[3Pal][Sar]-NH2
modifications: disulfide 2-7 (inferred); not fully specified (N-terminus); printed as HOC18gEPEG2PEG2CO-r-Pen(3)-K(d)-T-7MeW-K(Ac)-Pen(3)-AEF-2Nal-THP-E-N-3Pya-Sar-CONH2
B11: SEQ ID NO: 35 (peptide)
peptide: Ac-[dK]([PEG2′-PEG2′-γGlu-C18OH])[Pen]XT[Trp(7-Me)]K(Ac)[Pen][AEF][2Nal][Thp]EN[3Pal][Sar]-NH2
modifications: disulfide 2-7 (inferred); not fully specified (residue 3); printed as MeCO-k(PEG2PEG2gEC18OH)-Pen(3)-K(d)-T-7MeW-K(Ac)-Pen(3)-AEF-2Nal-THP-E-N-3Pya-Sar-CONH2
B12: SEQ ID NO: 70 (peptide)
peptide: Ac-[dR][Pen]NT[Trp(7-Me)]K(NMecPEG3a)[Pen][AEF][2Nal][Thp]EN[3Pal][Sar]K([PEG2″-PEG2″-C18OH])-NH2
modifications: disulfide 2-7 (inferred); reading uncertain; also: printed as MeCO-r-Pen(3)-N-T-7MeW-K(NMecPEG3a)-Pen(3)-AEF-2Nal-THP-E-N-3Pya-Sar-K(PEG2PEG2C18OH)-CONH2
B13: SEQ ID NO: 34 (peptide)
peptide: Ac-[dK]([PEG2′-PEG2′-γGlu-C18OH])[Pen]NT[Trp(7-Me)]X[Pen][AEF][2Nal][Thp]EN[3Pal][Sar]-NH2
modifications: disulfide 2-7 (inferred); not fully specified (residue 6); printed as MeCO-k(PEG2PEG2gEC18OH)-Pen(3)-N-T-7MeW-K(d)-Pen(3)-AEF-2Nal-THP-E-N-3Pya-Sar-CONH2

Target: T1, interleukin-23 receptor (IL-23R)
Experiment: cell-based or functional assay

| Binder | IC50, IL23R reporter assay |
| --- | --- |
| B1 | < 50 nM |
| Ac-K([PEG2″-PEG2″-γGlu-C18OH])[Pen]NT[Trp(7-Me)]K(Ac)[Pen][TMAPF][2Nal][Thp]K(Ac)N[3Pal][Sar]-NH2 (disulfide 2-7 (inferred)) [SEQ ID NO: 62] | < 50 nM |
| Ac-[dR][Pen]NT[Trp(7-Me)]Q[Pen][AEF][2Nal][Thp]EN[3Pal][Sar]K([PEG2′-PEG2′-γGlu-C18OH])-NH2 (disulfide 2-7 (inferred)) [SEQ ID NO: 38] | < 50 nM |
| B2 | < 50 nM |
| {Biotin-PEG4′}-[dR][Pen]NT[Trp(7-Me)]K(Ac)[Pen][AEF][2Nal][Thp]EN[3Pal][Sar]K([PEG2″-PEG2″-γGlu-C18OH])-NH2 (disulfide 2-7) [SEQ ID NO: 57] | < 50 nM |
| Ac-[dR][Pen]NT[Trp(7-Me)]K(Ac)[Pen][AEF][2Nal][Thp]K(code d″)N[3Pal][Sar]K([PEG2″-PEG2″-γGlu-C18OH])-NH2 (disulfide 2-7 (inferred)) [SEQ ID NO: 51] | ≥ 500 nM |
| B3 | < 50 nM |
| B4 | < 50 nM |
| {HOC18-γGlu-PEG2″-PEG2″}-[dR][Pen]NT[Trp(7-Me)]K(Ac)[Pen][AEF][2Nal][Thp]EN[3Pal][Sar]-NH2 (disulfide 2-7) [SEQ ID NO: 60] | < 50 nM |
| Ac-[dK]([PEG2′-PEG2′-γGlu-C18OH])[Pen]NT[Trp(7-Me)]K(Ac)[Pen][AEF][2Nal][Thp]EN[3Pal][NMeK](code d)-NH2 (disulfide 2-7 (inferred)) [SEQ ID NO: 42] | < 50 nM |
| B5 | < 50 nM |
| B6 | < 50 nM |
| B7 | < 50 nM |
| B8 | < 50 nM |
| B9 | < 50 nM |
| Ac-K([PEG2′-PEG2′-γGlu-C18OH])[Pen]NT[Trp(7-Me)]K(Ac)[Pen][AEF][2Nal][Thp]K(Ac)N[3Pal][Sar]-NH2 (disulfide 2-7 (inferred)) [SEQ ID NO: 39] | < 50 nM |
| XNTXXXXXXENXX (HOC18gEPEG2PEG2CO-Pen(3)-N-T-7MeW-K(Ac)-Pen(3)-AEF-2Nal-THP-E-N-3Pya-Sar-CONH2) [SEQ ID NO: 61] | < 50 nM |
| B10 | < 50 nM |
| B11 | < 50 nM |
| B12 | < 50 nM |
| Ac-[dR][Pen]NT[Trp(7-Me)]K(Ac)[Pen][AEF][2Nal][Thp]K([PEG4′-Biotin])N[3Pal][Sar]K([PEG2″-PEG2″-γGlu-C18OH])-NH2 (disulfide 2-7) [SEQ ID NO: 56] | < 50 nM |
| B13 | < 50 nM |

Target: T1, interleukin-23 receptor (IL-23R)
Experiment: cell-based or functional assay
Remark: another data set of the same source

| Binder | PBMC pSTAT3 IC50 |
| --- | --- |
| B1 | < 0.5 nM |
| Ac-K([PEG2″-PEG2″-γGlu-C18OH])[Pen]NT[Trp(7-Me)]K(Ac)[Pen][TMAPF][2Nal][Thp]K(Ac)N[3Pal][Sar]-NH2 (disulfide 2-7 (inferred)) [SEQ ID NO: 62] | < 0.5 nM |
| Ac-[dR][Pen]NT[Trp(7-Me)]Q[Pen][AEF][2Nal][Thp]EN[3Pal][Sar]K([PEG2′-PEG2′-γGlu-C18OH])-NH2 (disulfide 2-7 (inferred)) [SEQ ID NO: 38] | < 0.5 nM |
| B2 | < 0.5 nM |
| {Biotin-PEG4′}-[dR][Pen]NT[Trp(7-Me)]K(Ac)[Pen][AEF][2Nal][Thp]EN[3Pal][Sar]K([PEG2″-PEG2″-γGlu-C18OH])-NH2 (disulfide 2-7) [SEQ ID NO: 57] | < 0.5 nM |
| Ac-[dR][Pen]NT[Trp(7-Me)]K(Ac)[Pen][AEF][2Nal][Thp]K(code d″)N[3Pal][Sar]K([PEG2″-PEG2″-γGlu-C18OH])-NH2 (disulfide 2-7 (inferred)) [SEQ ID NO: 51] | < 0.5 nM |
| B3 | < 0.5 nM |
| B4 | < 0.5 nM |
| {HOC18-γGlu-PEG2″-PEG2″}-[dR][Pen]NT[Trp(7-Me)]K(Ac)[Pen][AEF][2Nal][Thp]EN[3Pal][Sar]-NH2 (disulfide 2-7) [SEQ ID NO: 60] | < 0.5 nM |
| Ac-[dK]([PEG2′-PEG2′-γGlu-C18OH])[Pen]NT[Trp(7-Me)]K(Ac)[Pen][AEF][2Nal][Thp]EN[3Pal][NMeK](code d)-NH2 (disulfide 2-7 (inferred)) [SEQ ID NO: 42] | < 0.5 nM |
| B5 | < 0.5 nM |
| B6 | < 0.5 nM |
| B7 | < 0.5 nM |
| B8 | < 0.5 nM |
| B9 | < 0.5 nM |
| Ac-K([PEG2′-PEG2′-γGlu-C18OH])[Pen]NT[Trp(7-Me)]K(Ac)[Pen][AEF][2Nal][Thp]K(Ac)N[3Pal][Sar]-NH2 (disulfide 2-7 (inferred)) [SEQ ID NO: 39] | < 0.5 nM |
| XNTXXXXXXENXX (HOC18gEPEG2PEG2CO-Pen(3)-N-T-7MeW-K(Ac)-Pen(3)-AEF-2Nal-THP-E-N-3Pya-Sar-CONH2) [SEQ ID NO: 61] | < 0.5 nM |
| B10 | < 0.5 nM |
| B11 | < 0.5 nM |
| B12 | < 0.5 nM |
| Ac-[dR][Pen]NT[Trp(7-Me)]K(Ac)[Pen][AEF][2Nal][Thp]K([PEG4′-Biotin])N[3Pal][Sar]K([PEG2″-PEG2″-γGlu-C18OH])-NH2 (disulfide 2-7) [SEQ ID NO: 56] | < 0.5 nM |
| B13 | < 0.5 nM |
